The subject of this data set is P266L T7 RNA polymerase (bacteriophage T7). The data set can be described thus: fluorescence anisotropy. Particulars: Buffer A: 50 mM Tris-acetate, 50 mM sodium acetate, 10 mM magnesium acetate, 5 mM DTT, 25 C; pH not stated. Background: Fluorescence polarisation rises when a labelled molecule tumbles more slowly, as on binding a larger partner.

These results are taken from PMC3961267.

In turn, TAMRA-labeled T7 consensus promoter DNA yielded a dissociation constant (Kd) of 3.6 nM.

For orientation: Kd means a measure of binding affinity in units of concentration. Lower therefore signals a tighter complex.
